The target of one data set is T1, rPPR10 wild-type (maize, UniProt B8Y6I0 96-786).
T1 sequence: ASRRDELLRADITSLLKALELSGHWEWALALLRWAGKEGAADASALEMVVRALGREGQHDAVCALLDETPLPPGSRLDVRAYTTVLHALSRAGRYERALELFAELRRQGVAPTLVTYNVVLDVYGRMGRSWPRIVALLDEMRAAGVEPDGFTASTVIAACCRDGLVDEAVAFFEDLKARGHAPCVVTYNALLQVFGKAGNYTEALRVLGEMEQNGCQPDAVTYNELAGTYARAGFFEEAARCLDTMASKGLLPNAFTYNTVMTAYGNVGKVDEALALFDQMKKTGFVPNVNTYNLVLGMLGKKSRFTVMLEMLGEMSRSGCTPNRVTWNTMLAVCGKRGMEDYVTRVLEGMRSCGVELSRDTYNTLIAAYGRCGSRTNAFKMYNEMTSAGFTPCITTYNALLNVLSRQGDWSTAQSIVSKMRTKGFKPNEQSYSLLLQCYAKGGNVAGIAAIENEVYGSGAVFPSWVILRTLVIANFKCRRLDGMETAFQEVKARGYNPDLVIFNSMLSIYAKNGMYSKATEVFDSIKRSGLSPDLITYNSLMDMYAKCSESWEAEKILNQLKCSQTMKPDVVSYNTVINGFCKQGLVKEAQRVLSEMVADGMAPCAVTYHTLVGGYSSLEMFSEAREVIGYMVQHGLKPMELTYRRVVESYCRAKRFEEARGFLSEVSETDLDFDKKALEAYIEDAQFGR
As to the kind of experiment: EMSA; EMSA: radiolabeled RNA 15 pM, protein 0, 5, 10, 20 nM; binding buffer and temperature by reference [12]; protein stock in 400 mM NaCl, 50 mM Tris-HCl pH 7.5, 5. The settings on record: protein: recombinant; tags: MBP fusion removed by TEV cleavage; label: radiolabeled; single-stranded. A general note: In EMSA bound probe runs differently from free probe, usually more slowly.

The target in data set [1] is T2, PPR10 TN variant (maize, UniProt B8Y6I0 96-786, N284T;D314N;N319T).
T2 sequence: T1 sequence with N189T, D219N, N224T
As to the kind of experiment: EMSA; high affinity; EMSA: radiolabeled RNA 15 pM, protein 0, 5, 10, 20 nM; binding buffer and temperature by reference [12]; protein stock in 400 mM NaCl, 50 mM Tris-HCl pH 7.5, 5. The settings on record: protein: recombinant; tags: MBP fusion removed by TEV cleavage; label: radiolabeled; single-stranded.

Data set [2] deals with the molecule itself. As to the kind of experiment: AUC; sedimentation velocity; rPPR10 alone at 3, 6 and 12 µM; 20°C, 50,000 rpm, interference optics; 250 mM NaCl, 50 mM Tris-HCl pH 7.5, 5 mM ß-mercaptoethanol; monomer to dimer.
Data set [3] has as its target T3, PPR10 TD variant (maize, UniProt B8Y6I0 96-786, N284T;N319T;N349D).
T3 sequence: T1 sequence with N189T, N224T, N254D
Kind of data set: EMSA; EMSA: radiolabeled RNA 15 pM, protein 0, 5, 10, 20 nM; binding buffer and temperature by reference [12]; protein stock in 400 mM NaCl, 50 mM Tris-HCl pH 7.5, 5. To be noted: protein: recombinant; tags: MBP fusion removed by TEV cleavage; label: radiolabeled; single-stranded.

Data set [4] has as its target T2, PPR10 TN variant. The description is as above. The settings on record: protein: recombinant; tags: MBP fusion removed by TEV cleavage; label: radiolabeled; single-stranded.
Data set [5] has as its target T3, PPR10 TD variant. Kind of data set: EMSA; high affinity; EMSA: radiolabeled RNA 15 pM, protein 0, 5, 10, 20 nM; binding buffer and temperature by reference [12]; protein stock in 400 mM NaCl, 50 mM Tris-HCl pH 7.5, 5. The settings on record: protein: recombinant; tags: MBP fusion removed by TEV cleavage; label: radiolabeled; single-stranded.

This note sets out measurements from PMC3420917, “A Combinatorial Amino Acid Code for RNA Recognition by Pentatricopeptide Repeat Proteins” (PLoS Genetics, 2012).

Substitutions are numbered along the chain they refer to.

For the molecule GUAAACUUAACCAUUUC (ssRNA) [AA RNA], the binding result with rPPR10 wild-type is reported as “no binding”; with PPR10 TN variant [1] it was “binds”.

B1: Recombinant PPR10 (natural protein, maize, UniProt B8Y6I0 96-786, looked up)
chain: T1 sequence
notes: PPR10, maize chloroplast pentatricopeptide repeat protein (19 PPR motifs); mature PPR10 lacking the plastid targeting peptide; monomeric molecular weight of rPPR10 printed as 82.6 kDa; also called rPPR10
With B1, the stoichiometry N (in general, a count of units in the complex or per binding partner) in data set [2] is 2.
Take GUAUCCUUAACCAUUUC (ssRNA) [wild-type RNA (EMSA)]: the binding result with PPR10 TD variant [3] and in the data set with PPR10 TN variant [4] was “no binding” throughout.
As to GUAGGCUUAACCAUUUC (ssRNA) [GG RNA], the results for the binding result in the data set with rPPR10 wild-type and with PPR10 TD variant [5] were “no binding” and “binds”, respectively.
